Results published in patent US20200377604.
Substitutions are numbered along the chain they refer to. Names may count otherwise.

B1: knob Fc F241S/F243R (protein)
chain: DKTHTSPPSPAPELLGGPSVSLRPPKPKDTLMISRTPEVTCVVVDVSHEDPEVKFNWYVDGVEVHNAKTKPREEQYNSTYRVVSVLTVLHQDWLNGKEYKCKVSNKALPAPIEKTISKAKGQPREPQVYTLPPSREEMTKNQVSLWCLVKGFYPSDIAVEWESNGQPENNYKTTPPVLDSDGSFFLYSKLTVDKSRWQQGNVFSCSVMHEALHNHYTQKSLSLSPGK
B2: knob Fc F241R/F243S (protein)
chain: B1 chain with S21R, R23S

Assays:
[1] = gel filtration of the Fc, mAU at 280 nm against time; low, broad peak at 19.477 min
[2] = gel filtration of the Fc, mAU at 280 nm against time; low, broad peak at 19.455 min

Row | Protein | Area of the small peak ahead of the monomer peak (dimer position; not labelled Dimer on the sheet) [1] | Area of the small peak ahead of the monomer peak (dimer position; not labelled Dimer on the sheet) [2]
1 | B1 | Area: 1943.99 | 
2 | B2 |  | Area: 3287.62
